Holding throughout (assay): HMF sulfoconjugation assay
Holding throughout (conditions): other: catalytic efficiency of HMF sulfoconjugation; pH 7.4

Substrate in series [1]: O=Cc1ccc(CO)o1
The format is biochemical, mouse. The procedure: (§1) Cytosolic fractions containing individual SULT forms were prepared from transgenic S. typhimurium TA1538. Table S1 in the Supplementary Material provides a summary of the thirty SULTs used in the current study together with references describing the cloning of the respective S. typhimurium TA1538 strains. The expressed SULT forms are denoted with the prefixes h, m and r for human, mouse and rat enzymes, respectively. Bacteria were grown in Luria Broth medium containing ampicillin (100 µg/ml) by stirring for 8 h at 200 revolutions/min at 37 °C. The bacterial suspensions were centrifuged at 5,000 g for 10 min. […] The protein concentrations were determined according to a bicinchoninic acid (BCA) assay protocol. […]
(§2) The reactions were conducted in mixtures of 100 µl containing 25–200 µg protein, 50 mM potassium phosphate buffer (pH 7.4), 5 mM MgCl2, 50 µM PAPS and different concentrations of HMF at 37 °C. Preliminary experiments ensured that measurements were recorded under ‘linear’ conditions, i.e., doubling of protein concentration or incubation time was doubling the amount of sulfate ester formed. […]
(§3) SMF concentrations of the clear supernatants were analyzed by UPLC-MS/MS. The protocol was adapted from the quantification of SMF in plasma samples of HMF-treated mice (Monien et al. [2009]). […]

Substrate in series [2]: O=Cc1ccc(CO)o1
The format is biochemical, human. How it is done:
Cytosolic fractions containing individual SULT forms were prepared from transgenic S. typhimurium TA1538. Table S1 in the Supplementary Material provides a summary of the thirty SULTs used in the current study together with references describing the cloning of the respective S. typhimurium TA1538 strains. The expressed SULT forms are denoted with the prefixes h, m and r for human, mouse and rat enzymes, respectively. Bacteria were grown in Luria Broth medium containing ampicillin (100 µg/ml) by stirring for 8 h at 200 revolutions/min at 37 °C. The bacterial suspensions were centrifuged at 5,000 g for 10 min. The sediments were washed twice with 25 ml of 10 mM potassium phosphate buffer (pH 7.4)/50 mM potassium chloride (KCP buffer) and centrifuged again. The pellets were taken up in 800 µl KCP buffer and sonicated thrice for 15 s with 30 s pauses in between. The soluble fraction was attained by centrifuging for 1 h at 100,000 g. The supernatants (in the following termed cytosolic preparations) were frozen at −80 °C. The protein concentrations were determined according to a bicinchoninic acid (BCA) assay protocol. The SULT concentrations in the cytosolic preparations were estimated after electrophoretic separation and immunodetection using inclusion bodies of different SULT forms as standards (Teubner et al. [2007]). The preparation of SULT inclusion bodies and the immunodetection of SULTs is described in the Supplementary Material, which also contains a representative immunoblot of different amounts of rSult1a1standard and a cytosolic preparation of S. typhimurium expressing rSult1a1 (Fig. S1).
as §2
SMF concentrations of the clear supernatants were analyzed by UPLC-MS/MS. The protocol was adapted from the quantification of SMF in plasma samples of HMF-treated mice (Monien et al. [2009]). In short, the supernatants were analyzed using a UPLC system (Waters) connected to a Quattro Premier XE tandem quadrupole mass spectrometer (Waters) using the negative electrospray ionization mode. […] The fragmentation reactions of SMF yielding two principal ions, the sulfate ion radical (m/z = 204.9 → 96.0) and the protonated sulfonate ion (m/z = 204.9 → 81.0) were monitored. […] SMF was quantified using an external calibration line that was linear in the concentration range of 1.0 nM (4 fmol/injection) to 2,500 (10 pmol/injection) SMF (r ^2 ≥ 0.99). […]

Substrate in series [3]: O=Cc1ccc(CO)o1
The format is biochemical, rat. The procedure:
as §1, §2, §3

B1: mSult1d1 (Mus musculus) (protein)
chain: MDNKLDVFRRELVDVEGIPLFWSIAEHWSQVESFEARPDDILISTYPKSGTTWVSEILDLIYNNGDAEKCKRDAIYKRVPFMELIIPGITNGVEMLNNMPSPRIVKTHLPVQLLPSSFWKNDCKIIYVARNAKDVVVSYYYFYQMAKIHPEPGTWEEFLEKFMAGQVSFGPWYDHVKSWWEKRKEYRILYLFYEDMKENPKCEIQKILKFLEKDIPEEILNKILYHSSFSVMKENPSANYTTMMKEEMDHSVSPFMRKGISGDWKNQFTVAQYEKFEEDYVKKMEDSTLKFRSEI
notes: made in house; host or cells: Salmonella typhimurium TA1538 (cytosolic fraction, enzyme not purified)
By kcat/Km is commonly meant the second-order rate constant that governs catalysis at low substrate concentration. As for B1, the catalytic efficiency (kcat/Km) in series [1] is 4.8 M⁻¹ s⁻¹.

B2: mSult1a1 (Mus musculus) (protein)
chain: MEPLRKPLVPVKGIPLIKYFAETMEQLQNFTAWPDDVLISTYPKSGTNWMSEIMDMIYQGGKLDKCGRAPVYARIPFLEFSCPGVPPGLETLKETPAPRIIKTHLPLSLLPQSLLDQKIKVIYVARNAKDVVVSYYNFYKMAKLHPDPGTWESFLENFMDGKVSYGSWYQHVKEWWELRRTHPVLYLFYEDMKENPKREIKKILEFLGRSLPEETVDLIVHHTSFKKMKENPMANYTTIPTEVMDHTIYPFMRKGTIGDWKNTFTVAQSEHFDAHYAKLMTGCDFTFRCQI
notes: as for B1
Regarding B2, the kcat/Km in series [1] is 15.8 M⁻¹ s⁻¹.

B3: hSULT1A3 (Homo sapiens) (protein)
chain: MELIQDTSRPPLEYVKGVPLIKYFAEALGPLQSFQARPDDLLINTYPKSGTTWVSQILDMIYQGGDLEKCNRAPIYVRVPFLEVNDPGEPSGLETLKDTPPPRLIKSHLPLALLPQTLLDQKVKVVYVARNPKDVAVSYYHFHRMEKAHPEPGTWDSFLEKFMAGEVSYGSWYQHVQEWWELSRTHPVLYLFYEDMKENPKREIQKILEFVGRSLPEETMDFMVQHTSFKEMKKNPMTNYTTVPQELMDHSISPFMRKGMAGDWKTTFTVAQNERFDADYAEKMAGCSLSFRSEL
notes: made in house; host or cells: Salmonella typhimurium TA1538 (cytosolic fraction, not purified)
On to B3, for which the kcat/Km in series [2] was found to be 0.26 M⁻¹ s⁻¹.

B4: hSULT1C2 (Homo sapiens) (protein)
chain: MALHDMEDFTFDGTKRLSVNYVKGILQPTDTCDIWDKIWNFQAKPDDLLISTYPKAGTTWTQEIVELIQNEGDVEKSKRAPTHQRFPFLEMKIPSLGSGLEQAHAMPSPRILKTHLPFHLLPPSLLEKNCKIIYVARNPKDNMVSYYHFQRMNKALPAPGTWEEYFETFLAGKVCWGSWHEHVKGWWEAKDKHRILYLFYEDMKKNPKHEIQKLAEFIGKKLDDKVLDKIVHYTSFDVMKQNPMANYSSIPAEIMDHSISPFMRKGAVGDWKKHFTVAQNERFDEDYKKKMTDTRLTFHFQF
notes: as for B3
B4: the kcat/Km in series [2] was found to be 0.73 M⁻¹ s⁻¹.

B5: rSult1a1 (Rattus norvegicus) (protein)
chain: MEFSRPPLVHVKGIPLIKYFAETIGPLQNFTAWPDDLLISTYPKSGTTWMSEILDMIYQGGKLEKCGRAPIYARVPFLEFKCPGVPSGLETLEETPAPRLLKTHLPLSLLPQSLLDQKVKVIYIARNAKDVVVSYYNFYNMAKLHPDPGTWDSFLENFMDGEVSYGSWYQHVKEWWELRHTHPVLYLFYEDIKENPKREIKKILEFLGRSLPEETVDSIVHHTSFKKMKENCMTNYTTIPTEIMDHNVSPFMRKGTTGDWKNTFTVAQNERFDAHYAKTMTDCDFKFRCEL
notes: as for B1
In the case of B5, in series [3], the kcat/Km worked out at 5.3 M⁻¹ s⁻¹.

B6: hSULT1A2 (Homo sapiens) (protein)
chain: MELIQDISRPPLEYVKGVPLIKYFAEALGPLQSFQARPDDLLISTYPKSGTTWVSQILDMIYQGGDLEKCHRAPIFMRVPFLEFKVPGIPSGMETLKNTPAPRLLKTHLPLALLPQTLLDQKVKVVYVARNAKDVAVSYYHFYHMAKVYPHPGTWESFLEKFMAGEVSYGSWYQHVQEWWELSRTHPVLYLFYEDMKENPKREIQKILEFVGRSLPEETVDLMVEHTSFKEMKKNPMTNYTTVRREFMDHSISPFMRKGMAGDWKTTFTVAQNERFDADYAKKMAGCSLSFRSEL
notes: as for B3
In the case of B6, the kcat/Km in series [2] amounted to 0.71 M⁻¹ s⁻¹.

B7: hSULT1A1 (Homo sapiens) (protein)
chain: MELIQDTSRPPLEYVKGVPLIKYFAEALGPLQSFQARPDDLLISTYPKSGTTWVSQILDMIYQGGDLEKCHRAPIFMRVPFLEFKAPGIPSGMETLKDTPAPRLLKTHLPLALLPQTLLDQKVKVVYVARNAKDVAVSYYHFYHMAKVHPEPGTWDSFLEKFMVGEVSYGSWYQHVQEWWELSRTHPVLYLFYEDMKENPKREIQKILEFVGRSLPEETVDFVVQHTSFKEMKKNPMTNYTTVPQEFMDHSISPFMRKGMAGDWKTTFTVAQNERFDADYAEKMAGCSLSFRSEL
notes: as for B3
Take B7: the catalytic efficiency (kcat/Km) in series [2] was determined as 13.7 M⁻¹ s⁻¹.

B8: rSult1c1 (Rattus norvegicus) (protein)
chain: MSLEKMKDLHLGEQDLQPETREVNGILMSKLMSDNWDKIWNFQAKPDDLLIATYAKAGTTWTQEIVDMIQNDGDVQKCQRANTYDRHPFIEWTLPSPLNSGLDLANKMPSPRTLKTHLPVHMLPPSFWKENSKIIYVARNAKDCLVSYYYFSRMNKMLPDPGTLGEYIEQFKAGKVLWGSWYDHVKGWWDVKDQHRILYLFYEDMKEDPKREIKKIAKFLEKDISEEVLNKIIYHTSFDVMKENPMANYTTLPSSIMDHSISPFMRKGMPGDWKNYFTVAQSEDFDEDYRRKMAGSNITFRTEI
notes: as for B1
On to B8, for which, in series [3], the kcat/Km came out at 0.12 M⁻¹ s⁻¹.
